Results taken from article PMC8563995, “CCA-addition in the cold: Structural characterization of the psychrophilic CCA-adding enzyme from the permafrost bacterium Planococcus halocryophilus” (Computational and Structural Biotechnology Journal, 2021).
pKd: −log10 of the molar value.

System: GstCCA (CCA-adding enzyme, tRNA nucleotidyltransferase) (Geobacillus stearothermophilus)
Assay: EMSA
Settings: 10 mM MgCl2; 37 °C; EMSA: 50 mM glycine/NaOH pH 8.5, 10 mM MgCl2, 2 mM DTT, 0.3 pmol tRNA, 0-5 µM enzyme, 10 min at 37 °C (GstCCA) or 4 °C and 30 °C (PhaCCA); 5% native PAGE at …

yeast tRNAPhe lacking the CCA terminus
pKd: 5.89
